# Source: patent US20230087570A1 (NATIONAL CANCER CENTER, published 2023)
# B1: hTIM-3_NCC1 (Fc fusion)
# scFv: EVQLVESGGGLVQPGGSLRLSCAASGSIFSNGYMTWYRQAPGKGLELVSSINSRGVTNYADSVKGRFTISRDNSKNTLYLQMNSLRAEDTAVYYCAALLPHEIRKYWGQGTQVTVSSGGGSHGGGSGGGSVDDIQMTQSPDSLAVSLGERATINCKSSQSVFYNSNNKNYLGWYQKKPGQPPKLLIFWASTRESGVPDRFSGSGSGTDFTLTISSLQAEDVAVYYCQQYYSTPRTLGGGTKVDIKR
# notes: Human scFv from a naive phage library, tested as scFv-hIgG (hIgG1) and detected with anti-human IgG secondary antibodies; also called scFv-TIM3 #4; ScFV-TIM3 #4; not shown: human IgG1 part (named only as 'hscFv-hIgG1')
# Target: T1, mouse TIM-3 expressed on cells (mouse, UniProt Q8VIM0 20-281)
# T1 construct: whole, on cells; also called mTIM-3
# Assay: flow cytometry on mouse primary glial cells (FIG. 7 legend)
# Method: FACS analysis was performed to determine whether the selected antibody, hTIM-3_NCC1, specifically binds to mouse TIM-3 as well as human TIM-3.
# Specifically, 0.5 μg of hTIM-3_NCC1 antibody was reacted to mouse primary glial cells for 30 minutes, and then stained with a secondary antibody (APC-human IgG Fc; Biolegend, cat #409305). In addition, mouse CD11b⁺ cells overexpressing mouse TIM-3 (3×10⁵ cells) were separated using a-BV421-conjugated anti-CD11b antibody (BD, cat #562605) and then 0.5 μg of hTIM-3_NCC1 antibody and PE-conjugated anti-mouse were reacted for 30 minutes. These cells were surface-stained with a secondary antibody (APC-Human IgG Fc) and then measured by flow cytometry.
# T1 sequence (Q8VIM0 20-281): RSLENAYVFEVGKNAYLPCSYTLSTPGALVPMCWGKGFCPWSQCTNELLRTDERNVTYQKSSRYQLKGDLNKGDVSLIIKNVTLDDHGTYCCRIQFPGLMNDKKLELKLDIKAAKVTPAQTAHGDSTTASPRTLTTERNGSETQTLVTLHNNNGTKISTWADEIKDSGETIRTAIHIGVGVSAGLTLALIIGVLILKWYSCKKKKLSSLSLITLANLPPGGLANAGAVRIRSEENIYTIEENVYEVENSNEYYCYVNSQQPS
binder,measurement,value
B1,binding result,binds
